Earlier results in patent publication US20080107649A1, “Immunogenic compositions of cyclic peptides derived from the beta-amyloid peptide” (Pevion Biotech Ltd., priority 2004, published 2008).

Details: human, in vivo

Substance: Aβ1-42: β-amyloid peptide of 42 amino acids (SEQ ID NO: 1), predominantly found in the plaques
- side effect of inoculation: severe side effect of cerebral inflammation in some patients
